The target of assay [1] is HLA-B08:01 class I MHC molecule (human). Nature of the assay: pMHC-I dissociation at 37 C, 125I-labeled b2m, scintillation counts. The method, then: (§1) Briefly, synthetic genes encoding biotinylated MHC-I heavy and light chains are expressed in E. coli and purified from inclusion bodies using standard methods. […] These reactions are carried out in streptavidin coated microplates to bind the biotinylated MHC-I heavy chains to the surface and allow measurement of radiolabeled light chain to monitor complex formation. Dissociation is initiated by addition of higher concentrations of unlabeled light-chain and incubation at 37° C. Stability is defined as the length of time in hours it takes for half of the complexes to dissociate, as measured by scintillation counts.

For assay [2] the target is unchanged. Description: competition with a radiolabeled reference peptide for purified MHC I, gel filtration; 'Affinity (nM)'. The protocol: (§2) Peptides were incubated at varying concentrations with these complexes for 2 days, and the amount of remaining radiolabeled peptide bound to […] was measured using size exclusion gel-filtration.
(In general: Size exclusion chromatography separates by hydrodynamic size, large species first.)

The target in assay [3] is T1, HLA-A01:01 class I MHC molecule (human).
T1 construct: heavy chain biotinylated and made in E. coli in the stability assay
Description: pMHC-I dissociation at 37 C, 125I-labeled b2m, scintillation counts. The method, then:
as §1

In assay [4] the target is HLA-A03:01 class I MHC molecule (human). The assay is described as above. The method, then: as §1
For assay [5], the target named is T1, HLA-A01:01 class I MHC molecule. Description: competition with a radiolabeled reference peptide for purified MHC I, gel filtration; 'Affinity (nM)'. The method, then: as §2
Assay [6] has as its target HLA-A03:01 class I MHC molecule (human). The assay is described as above. The protocol:
as §2

The target of assay [7] is HLA-A11:01 class I MHC molecule (human). Nature of the assay: competition with a radiolabeled reference peptide for purified MHC I, gel filtration; 'Affinity (nM)'; affinity assay, column 'Affinity (nM)'. The method, then:
as §2

Assay [8] deals with HLA-A24:02 class I MHC molecule (human). Description: pMHC-I dissociation at 37 C, 125I-labeled b2m, scintillation counts. The protocol:
as §1

For assay [9] the target is unchanged. Nature of the assay: competition with a radiolabeled reference peptide for purified MHC I, gel filtration; 'Affinity (nM)'. The method, then:
as §2

The target in assay [10] is T2, HLA-A02.01 (human).
T2 construct: Purified class I MHC
Nature of the assay: pMHC-I dissociation half-life, 125I-b2m. The procedure, abridged: (§3)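 Biotinylated MHC-I heavy chain made in E. coli, captured on streptavidin plates and complexed with peptide and radiolabelled light chain. Dissociation started with excess unlabelled light chain at 37 °C. Stability is the half-life in hours from scintillation counts.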

Assay [11] deals with T3, HLA-A24.02 (human).
T3 construct: Purified class I MHC
Description: pMHC-I dissociation half-life, 125I-b2m. The procedure, abridged: as §3

In assay [12] the target is T2, HLA-A02.01. Description: competition with radiolabeled reference peptide, purified MHC I. The method, then:
as §2

Assay [13] concerns the target T3, HLA-A24.02. Described as above. The protocol: as §2
The target in assay [14] is T4, HLA-A02.01 class I MHC molecule (prepared complex) (human). Description: dissociation of peptide-MHC-I complex at 37 C, 125I-labelled b2m, scintillation. The method, then: as §1
Assay [15] addresses T4, HLA-A02.01 class I MHC molecule …. Description: displacement of radiolabeled reference peptide from class I MHC, gel filtration; 'Affinity (nM)'. The method, then:
as §2

Results on five molecules are retold here after US20220282217A1 (BIONTECH US, published 2022).

On to SLLNYLREM [BTK_C481S peptide SLLNYLREM], for which the “Stability (half-life (hr.))” value in assay [1] came out at 0 h. Further, in assay [2], the IC50 (as a rule, the concentration that inhibits the measured activity by half) stood at 960 nM.

Turning to YMANGSLLNY [BTK, C481S peptide YMANGSLLNY], the “Stability (half-life (hr.))” value worked out at 52 min in [3] and 16.7 min in [4]. In addition, the IC50 in [5] worked out at 13.2 nM; in assay [6], 95.9 nM; in assay [7], 974 nM.

Regarding EYMANGSLL [BTK, C481S peptide EYMANGSLL], the “Stability (half-life (hr.))” value in assay [8] amounted to 5.72 h. The molecule further yielded an IC50 in assay [9] of 4.96 nM.

On to MNWRPILTII (also called TP53, R248W), for which the “Stability (T1/2 (h))” value in [10] stood at 0.4 h; in [11], 0 h. In addition, the IC50 in assay [12] was 1030 nM; in assay [13], 44.9 µM.

B1: EGFR_T790M peptide LIMQLMPFGC (peptide)
peptide: LIMQLMPFGC
notes: synthetic peptide holding the EGFR T790M mutation
In the case of B1, the “Stability (half-life (hr.))” value in assay [14] is 22.9 min. In addition, in assay [15], the IC50 was found to be 132 nM.
